Experimental data taken from article PMC11741422 (bioRxiv, 2025).
Where “and” joins values, the source holds several entries; their conditions need not be identical. Equal entries are not always repeated.

B1: Nanobody N2149 (2WVA149) (VHH)
VHH: QVQLQESGGGLVQAGGSLRLSCAVSGSIFSGNAMDWYRQAPGKQRELVASLTSTGSTNYADSVKGRFTITRDNAKNTVYLQMNSLKPEDTAVYYCHALIYRSRLDLAPGNYWGQGTQVTVSS
B2: Nanobody N125 (1WVA25) (VHH)
VHH: QVQLQESGGGLVQPGGSLRLSCVASGFTFSRYAMTWVRQAPGKGLEWVSDISSGGSSTFYTDSVKGRFTISRDNAKNTLYLQMNSLKPDDTAIYFCAKGVPSYYSDYERRSKRYDSRGQGTQVTVSS
B3: Nanobody N27 (2WVA7) (VHH)
VHH: QVQLQESGGGLVEIGGSLRLSCAASGTLFTFNTMAWYRQAPGKQREFIATITSGGNTNYADSVQGRFTISRGNAKNTLYLQMNSLKPEDTAVYYCNARTMTGPFDYWGQGTQVTVSS

Experiments:
[1] = target: T1, lipid nanodisc reconstituted yeast V-ATPase Vo proton channel subcomplex (VoND) (Saccharomyces cerevisiae (S288c-type …, UniProt P32563;P25515;P32842;P23968;P32366;Q3E7B6;P0C5R9;P53262)); assay: BLI
yeast Vo subunit d = yeast Vo subunit d (yeast (Saccharomyces cerevisiae), UniProt P32366); assay: cryo-EM structure
[2] = target: yeast Vo proteolipid subunit c (Vma3p) (yeast (Saccharomyces cerevisiae), UniProt P25515); assay: cryo-EM structure
[3] = target: T1, lipid nanodisc reconstituted yeast …; assay: cryo-EM structure

yeast Vo proteolipid subunit c (Vma3p), sequence (P25515 whole entry): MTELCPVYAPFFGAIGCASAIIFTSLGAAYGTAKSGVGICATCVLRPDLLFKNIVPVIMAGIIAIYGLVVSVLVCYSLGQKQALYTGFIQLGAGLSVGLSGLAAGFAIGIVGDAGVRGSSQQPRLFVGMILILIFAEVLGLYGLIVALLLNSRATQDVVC
yeast Vo subunit d, sequence (P32366 whole entry): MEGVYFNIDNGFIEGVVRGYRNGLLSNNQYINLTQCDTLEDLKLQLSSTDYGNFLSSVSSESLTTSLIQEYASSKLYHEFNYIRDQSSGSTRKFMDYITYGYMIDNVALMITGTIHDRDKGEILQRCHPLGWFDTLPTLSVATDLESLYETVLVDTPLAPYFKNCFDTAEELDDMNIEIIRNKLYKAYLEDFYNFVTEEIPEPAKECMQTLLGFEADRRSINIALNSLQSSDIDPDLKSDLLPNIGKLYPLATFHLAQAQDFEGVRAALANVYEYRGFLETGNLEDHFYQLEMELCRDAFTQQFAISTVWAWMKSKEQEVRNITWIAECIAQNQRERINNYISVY

Row | Binder | Kd [1] [nM] | binding result (yeast Vo subunit d) | binding result [2] | stoichiometry N [3]
1 | B1 | 0.09 ± 0.023 | binds |  | 
2 | B2 | 0.013 ± 0.001 |  | binds | 4 N125 per VoND and 3 N125 per VoND
3 | B3 | < 0.001 |  | binds | 8 N27 per VoND
